Results: PMC4678855 (Nucleic Acids Research, 2015)

Experiments:
[1] = target: B. subtilis β-clamp, cysteine-modified variant (residues 1–380 including the added Ser379–Cys380 dipeptide) (B. subtilis) (UniProt P05649); experiment: SAXS
SAXS = target: the molecule itself; experiment: SAXS

B1: B. subtilis MutL C-terminal domain, inactive cysteine-modified variant (residues 433–627; E485C, C531S, C573S, C604S) (domain or fragment, UniProt P49850 433-627, looked up)
chain: SDRVPIMYPIGQMHGTYILAQNENGLYIIDQHAAQERIKYEYFREKVGEVEPCVQEMIVPLTFHYSTNEALIIEQHKQELESVGVFLESFGSNSYIVRSHPAWFPKGEEAELIEEIIQQVLDSKNIDIKKLREEAAIMMSSKGSIKANRHLRNDEIKALLDDLRSTSDPFTSPHGRPIIIHHSTYEMEKMFKRVM
What does the source list for B1?
stoichiometry N [1]: 1; stoichiometry N (SAXS): 2
